The record followed here is patent publication US20150057236A1.

Holding throughout (assay): cell-based or functional assay
Experiment [1] addresses human Sirt1 (human) (UniProt Q96EB6).
The target of experiment [2] is human Sirt2 (human) (UniProt Q8IXJ6).
Experiment [3] has as its target human Sirt3 (human) (UniProt Q9NTG7).
For experiment [4], the target named is human Sirt5 (human) (UniProt Q9NXA8).

Bounds are passed on as bounds.

Chain of human Sirt1 (human) (Q96EB6 whole entry): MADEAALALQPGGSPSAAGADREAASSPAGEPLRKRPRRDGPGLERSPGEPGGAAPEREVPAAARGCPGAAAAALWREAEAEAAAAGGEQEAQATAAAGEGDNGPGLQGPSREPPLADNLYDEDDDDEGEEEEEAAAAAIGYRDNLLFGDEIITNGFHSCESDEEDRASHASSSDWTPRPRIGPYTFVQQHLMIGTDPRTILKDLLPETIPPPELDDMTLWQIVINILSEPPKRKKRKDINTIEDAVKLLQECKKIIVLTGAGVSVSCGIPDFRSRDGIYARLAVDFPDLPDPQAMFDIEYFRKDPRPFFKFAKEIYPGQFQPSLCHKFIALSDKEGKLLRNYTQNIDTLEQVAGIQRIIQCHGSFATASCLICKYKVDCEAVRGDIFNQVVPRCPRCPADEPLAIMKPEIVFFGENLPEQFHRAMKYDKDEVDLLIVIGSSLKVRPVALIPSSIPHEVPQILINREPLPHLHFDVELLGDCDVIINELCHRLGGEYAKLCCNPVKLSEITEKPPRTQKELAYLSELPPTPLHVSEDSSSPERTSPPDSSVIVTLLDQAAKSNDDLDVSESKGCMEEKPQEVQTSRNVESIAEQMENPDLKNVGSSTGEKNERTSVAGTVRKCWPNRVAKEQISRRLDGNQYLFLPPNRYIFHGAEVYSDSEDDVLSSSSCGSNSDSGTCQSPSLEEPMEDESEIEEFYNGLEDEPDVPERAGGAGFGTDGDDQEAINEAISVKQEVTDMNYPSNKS
Chain of human Sirt2 (human) (Q8IXJ6 whole entry): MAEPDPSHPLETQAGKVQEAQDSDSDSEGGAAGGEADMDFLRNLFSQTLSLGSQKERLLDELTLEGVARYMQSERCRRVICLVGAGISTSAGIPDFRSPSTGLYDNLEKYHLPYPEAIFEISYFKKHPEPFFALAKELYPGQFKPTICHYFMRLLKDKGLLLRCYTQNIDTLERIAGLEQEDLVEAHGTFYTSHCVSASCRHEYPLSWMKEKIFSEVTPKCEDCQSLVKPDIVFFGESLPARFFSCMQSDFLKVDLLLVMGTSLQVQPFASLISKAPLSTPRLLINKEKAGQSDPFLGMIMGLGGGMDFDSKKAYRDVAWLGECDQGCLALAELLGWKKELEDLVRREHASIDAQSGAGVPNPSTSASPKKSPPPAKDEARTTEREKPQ
Chain of human Sirt3 (human) (Q9NTG7 102-399 limits assumed): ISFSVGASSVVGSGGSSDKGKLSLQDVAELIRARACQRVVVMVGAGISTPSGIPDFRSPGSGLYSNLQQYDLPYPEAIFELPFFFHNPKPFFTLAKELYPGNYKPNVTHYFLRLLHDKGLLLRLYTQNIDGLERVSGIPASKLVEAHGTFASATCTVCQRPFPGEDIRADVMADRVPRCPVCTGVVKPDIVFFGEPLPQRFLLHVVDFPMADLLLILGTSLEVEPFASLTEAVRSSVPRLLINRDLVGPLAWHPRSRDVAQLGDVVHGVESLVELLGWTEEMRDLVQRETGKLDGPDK
Chain of human Sirt5 (human) (Q9NXA8 whole entry): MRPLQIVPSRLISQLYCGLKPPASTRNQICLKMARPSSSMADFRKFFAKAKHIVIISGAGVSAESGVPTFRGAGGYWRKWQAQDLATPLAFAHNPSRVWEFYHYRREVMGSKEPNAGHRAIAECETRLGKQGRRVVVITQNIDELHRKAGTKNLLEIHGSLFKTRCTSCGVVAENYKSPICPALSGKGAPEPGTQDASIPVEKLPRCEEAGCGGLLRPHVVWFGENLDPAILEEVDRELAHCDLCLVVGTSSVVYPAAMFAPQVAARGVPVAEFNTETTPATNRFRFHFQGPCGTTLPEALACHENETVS

For H3K9 thioacetyl peptide (H3K9 TAc), the IC50 (µM), inhibition of sirtuin deacylase activity in experiment [1] was 1 µM; in experiment [2], 2 µM; in experiment [3] it was 2 µM; in experiment [4], > 100 µM.
